Measurements reported in the supplement of paper PMC10567573.

B1: GNB5 (parent)
chain: YYPSGDAFASGSDDATCRLYDLRA
B2: BRF1 (parent)
chain: CTACGSVLEDNIIVSEVQFVESSG

Variants of: B1
Assay: protein stability index of a GFP-peptide fusion (GPS, HEK-293T) (PSI 1-6); higher = more stable
Settings: c terminus: a fixed tail appended
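Further: lentivirally expressed fusions sorted by FACS into six bins by GFP to DsRed ratio, PSI derived from sequencing read proportions per bin multiplied by bin number.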

Protein stability index of substitutions, site by site:
A15: V 2.72, W 2.56, Y 2.21
T16: A 2.96, C 2.27, D 2.91, E 2.79, F 2.32, G 2.46, H 2.37, I 2.18, K 3.11, L 2.32, M 2.31, N 2.69, P 2.54, Q 2.88, R 2.94, S 2.42, V 1.95, W 1.91, Y 2.52
C17: A 2.42, D 3.3, E 3.36, F 2.07, G 2.85, H 2.56, I 2.89, K 2.69, L 2.87, M 2.46, N 2.8, P 2.62, Q 2.9, R 2.62, S 2.85, T 2.61, V 2.85, W 2.48, Y 2.23
R18: A 3.06, C 2.29, D 3.35, E 3.25, F 2.84, G 2.85, H 3.23, I 2.42, K 3.04, L 2.45, M 2.2, N 2.54, P 3.13, Q 2.85, S 2.88, T 2.77, V 2.67, W 2.15, Y 2.49
L19: A 2.87, C 2.66, D 3.34, E 3.39, F 2.33, G 2.9, H 2.44, I 2.3, K 2.77, M 2.5, N 2.72, P 2.61, Q 2.65, R 2.55, S 2.87, T 3.07, V 2.56, W 2.46, Y 2.57
Y20: A 2.73, C 2.26, D 3.13, E 3.15, F 2.4, G 2.63, H 2.42, I 2.84, K 2.88, L 2.6, M 2.77, N 2.95, P 3.32, Q 2.88, R 3.13, S 2.87, T 2.65, V 2.9, W 2.33
D21: A 2.18, C 1.58, E 2.47, F 1.5, G 2.2, H 2.31, I 2.41, K 2.43, L 2.02, M 2.23, N 1.99, P 2.52, Q 2.3, R 1.99, S 1.89, T 1.99, V 1.8, W 2.25, Y 1.61
L22: A 2.8, C 3.17, D 3.03, E 3.34, F 2.64, G 2.65, H 3.09, I 2.78, K 3.07, M 2.49, N 2.84, P 2.85, Q 2.55, R 2.75, S 3.08, T 2.73, V 2.62, W 2.26, Y 2.68
R23: A 2.47, C 2.27, D 3.01, E 3.14, F 2.27, G 2.65, H 2.87, I 2.37, K 2.58, L 2.03, M 2.37, N 2.33, P 2.86, Q 2.47, S 2.81, T 2.18, V 2.03, W 2.15, Y 2.01
A24: C 2.3, D 2.62, E 2.27, F 2.07, G 2.7, H 2.24, I 1.9, K 2.43, L 2.14, M 2.85, N 2.79, P 2.34, Q 3.01, R 2.41, S 2.32, T 2.86, V 1.78, W 2, Y 2.22

Variants of: B2
Assay: as above
Settings: c terminus: a fixed tail appended

Protein stability index of substitutions, site by site:
C1: A 3.88, D 4.46, E 4.86, F 2.63, G 4.18, H 3.6, I 1.46, L 3.56, M 3.6, N 3.65, P 3.29, Q 4.3, R 3.83, S 4.13, T 4.16, V 2.2, W 2.51, Y 3.18
T2: A 3.64, D 3.42, E 3.25, F 2.12, G 2.33, H 3, I 2.52, K 3.48, L 2.75, M 2.78, N 3.02, P 2.72, Q 3.48, R 3.17, S 2.87, V 1.86, W 2.54, Y 2.21
A3: D 2.28, E 3.6, F 2.4, G 2.37, H 2.56, I 2.06, K 4.04, L 2.08, M 2.87, N 4.03, P 3.47, Q 3.88, R 2.9, S 2.91, T 3.07, V 3.22, W 3.08, Y 2.5
C4: A 3.49, D 4.7, E 4.21, F 2.78, G 3.74, H 4.04, I 3.35, K 4.04, L 3.15, M 3.88, N 4.37, P 2.68, Q 4.18, R 3.57, S 3.5, T 3.21, V 3.83, Y 2.61
G5: A 2.86, C 1.78, D 3.62, E 3.21, F 2.41, H 1.76, I 2.76, K 3.33, L 1.75, M 2.1, N 3.24, P 3.67, Q 2.92, R 2.4, S 3.17, T 2.91, V 1.33, W 2.27, Y 1.76
S6: A 2.73, C 2.38, D 2.94, E 2.2, F 1.24, G 3.35, H 4.15, I 1.27, K 3.06, L 1.39, M 1.82, N 2.5, P 2.79, Q 2.44, R 2.51, T 3.38, V 2.22, Y 1.59
V7: A 3.8, C 2.64, D 3.44, E 4.17, F 2.33, G 2.8, H 2.58, I 2.56, K 4.22, L 2.51, M 2.72, N 2.94, P 3.64, Q 2.96, R 3.22, S 2.85, T 3.86, W 2.53, Y 2.37
L8: A 2.9, C 3.29, D 3.65, E 3.68, F 2.37, G 3.39, H 3.32, I 3.44, K 3.54, M 3.79, N 4.42, P 3.9, Q 3.63, R 3.03, S 3.06, T 4.19, V 3.24, W 1.89, Y 2.93
E9: A 3.03, C 2.31, D 3.55, F 2.67, G 2.16, H 2.32, I 2.08, K 3.55, L 2.24, M 2.57, N 2.85, P 3.75, Q 2.99
